Patent US10562947B2, “Compositions and methods for preventing or treating diseases, conditions or processes characterized by aberrant fibroblast proliferation and extracellular matrix deposition” (MOERAE MATRIX, INC., priority 2011, dated 2020)
Where a SMILES comes first, the peptide text is derived from it.

Tests used:
JNK1α1(h) = molecular target: T1, JNK1α1(h) (Homo sapiens, UniProt P45983); experiment: Kinase Profiling Assay; assay type: biochemical; conditions: 100 μM peptide
T1 construct: purchased Millipore
T1 sequence (P45983 1-384 isoform P45983-2): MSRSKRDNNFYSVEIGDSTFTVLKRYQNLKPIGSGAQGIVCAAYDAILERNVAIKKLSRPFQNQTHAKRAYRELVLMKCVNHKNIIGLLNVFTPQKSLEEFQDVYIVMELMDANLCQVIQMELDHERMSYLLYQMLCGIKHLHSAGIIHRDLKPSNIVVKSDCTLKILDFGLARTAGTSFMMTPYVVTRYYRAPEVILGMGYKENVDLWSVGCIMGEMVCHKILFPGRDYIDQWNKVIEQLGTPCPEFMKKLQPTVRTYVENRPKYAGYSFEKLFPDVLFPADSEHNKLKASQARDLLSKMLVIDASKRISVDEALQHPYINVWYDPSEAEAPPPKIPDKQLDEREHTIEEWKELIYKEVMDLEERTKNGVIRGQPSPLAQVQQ
How it was run: (§1)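 Off-target screen of MK2 peptide inhibitors, 266 human kinases, n = 2 per activity measurement.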

Abl(M351T)(h) = Abl(M351T)(h) (Homo sapiens, UniProt P00519, M351T); experiment: Kinase Profiling Assay; assay type: biochemical; conditions: 100 μM peptide
How it was run: as §1

PAK3(h) = PAK3(h) (Homo sapiens, UniProt O75914); experiment: Kinase Profiling Assay; assay type: biochemical; conditions: 100 μM peptide
PAK3(h), sequence (O75914 whole entry): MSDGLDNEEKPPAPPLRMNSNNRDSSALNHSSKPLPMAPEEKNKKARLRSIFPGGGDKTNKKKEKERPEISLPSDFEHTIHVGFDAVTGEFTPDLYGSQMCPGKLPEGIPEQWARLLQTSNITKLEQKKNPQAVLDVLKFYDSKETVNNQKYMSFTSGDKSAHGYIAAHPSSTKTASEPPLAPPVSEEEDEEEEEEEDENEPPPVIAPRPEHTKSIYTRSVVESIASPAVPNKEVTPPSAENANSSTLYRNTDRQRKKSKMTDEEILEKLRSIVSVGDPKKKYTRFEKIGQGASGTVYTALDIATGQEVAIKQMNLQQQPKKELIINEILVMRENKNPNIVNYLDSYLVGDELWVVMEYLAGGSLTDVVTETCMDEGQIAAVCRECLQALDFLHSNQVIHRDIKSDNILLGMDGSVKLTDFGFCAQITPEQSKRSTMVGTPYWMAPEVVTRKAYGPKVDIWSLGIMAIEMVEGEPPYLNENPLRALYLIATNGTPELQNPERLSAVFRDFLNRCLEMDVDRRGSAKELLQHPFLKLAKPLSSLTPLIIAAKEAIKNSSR
How it was run: as §1

MKK7β(h) = molecular target: T2, MKK7β(h) (Homo sapiens, UniProt O14733); experiment: Kinase Profiling Assay; assay type: biochemical; conditions: 100 μM peptide
T2 sequence (O14733 1-419): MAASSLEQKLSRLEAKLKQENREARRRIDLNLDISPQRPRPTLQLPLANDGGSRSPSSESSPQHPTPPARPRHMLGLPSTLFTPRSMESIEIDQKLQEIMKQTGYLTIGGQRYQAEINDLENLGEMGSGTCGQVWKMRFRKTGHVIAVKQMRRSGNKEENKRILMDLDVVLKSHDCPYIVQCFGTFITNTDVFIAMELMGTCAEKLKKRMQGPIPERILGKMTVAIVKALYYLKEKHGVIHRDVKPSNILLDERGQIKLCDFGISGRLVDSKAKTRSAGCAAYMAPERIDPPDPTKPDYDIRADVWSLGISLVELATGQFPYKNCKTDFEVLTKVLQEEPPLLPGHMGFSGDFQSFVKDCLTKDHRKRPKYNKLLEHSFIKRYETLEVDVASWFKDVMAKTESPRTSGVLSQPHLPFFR
How it was run: as §1

CK1γ3(h) = CK1γ3(h) (Homo sapiens, UniProt Q9Y6M4); experiment: Kinase Profiling Assay; assay type: biochemical; conditions: 100 μM peptide
CK1γ3(h), sequence (Q9Y6M4 whole entry): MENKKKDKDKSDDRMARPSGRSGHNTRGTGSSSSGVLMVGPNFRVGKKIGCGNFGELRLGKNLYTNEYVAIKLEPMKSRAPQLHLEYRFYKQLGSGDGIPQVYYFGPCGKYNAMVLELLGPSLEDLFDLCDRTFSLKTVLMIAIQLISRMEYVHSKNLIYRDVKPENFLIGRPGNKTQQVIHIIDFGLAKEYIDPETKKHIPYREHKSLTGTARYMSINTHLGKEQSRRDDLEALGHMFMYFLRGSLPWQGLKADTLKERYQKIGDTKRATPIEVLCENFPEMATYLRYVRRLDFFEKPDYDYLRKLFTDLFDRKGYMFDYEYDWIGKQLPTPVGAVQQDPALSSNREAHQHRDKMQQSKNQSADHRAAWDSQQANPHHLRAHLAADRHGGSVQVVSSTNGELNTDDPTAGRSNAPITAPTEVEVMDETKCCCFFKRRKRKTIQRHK
How it was run: as §1

[1] = test system: bleomycin-induced lung fibrosis in C57BL/6 mice; experiment: Bleomycin mouse model of pulmonary fibrosis, prevention model (dosing day 7 to 21); assay type: in vivo; conditions: for collagen levels in the lung (Masson's blue trichrome), dose response: 25, 50 or 75 μg/kg daily IP, day 7 to 21
Protocol: A mouse model of pulmonary fibrosis was generated by administering 0.025 U of bleomycin/PBS intratracheally to C57BL/6 mice. […] At 21 day post bleomycin delivery (for prevention model) or 28 post bleomycin delivery (for treatment model), groups of mice were sacrificed with a sodium pentobarbital injection (120 mg/kg) and the chest cavity was opened. The right mainstem bronchus was ligated and the right lung was removed. The trachea was cannulated and the left lung was perfused with 4% formaldehyde at 21 cm H2O pressure. The tissue blocks then were embedded in paraffin, and […] sections were prepared for staining. Sections from each animal were stained with hematoxylin and eosin (H&E) to visualize cells or with Masson's Trichrome staining to highlight collagen deposition. […] Stained sections were mounted onto a labeled glass slide with organic mounting medium.
Briefly, fibrotic loci in the lungs of the mice were induced by delivering intratracheally about 0.025 U of bleomycin (dissolved in PBS) to C57BL/6 mice. […] Briefly, mice were sacrificed with a sodium pentobarbital injection (120 mg/kg) and the chest cavity was opened. The right mainstem bronchus was ligated and the right lung was removed. The trachea was cannulated and the left lung was perfused with 4% formaldehyde at 21 cm H2O pressure. The tissue blocks then were embedded in paraffin, and […] sections were prepared, and stained with hematoxylin and eosin (H&E; for pathological examination) or Masson's Trichrome (for collagen staining)
Next, total collagen levels in the lungs of the bleomycin-injured mice (FIG. 12) were analyzed quantitatively by computing a constant conversion factor (7.5) for collagen from hydroxyproline concentrations (Neuman R. and Logan M, J Biol Chem., 186(2):549-56, 1950, incorporated by reference).
Next, the effect of increasing doses of MK2 peptide inhibitors on collagen deposition was examined in vivo using the bleomycin mouse model of idiopathic pulmonary fibrosis (prevention model). Briefly, C57-BL/6 mice were subjected to bleomycin injury at day 0.

MRCKα(h) = MRCKα(h) (Homo sapiens, UniProt Q5VT25); experiment: Kinase Profiling Assay; assay type: biochemical; conditions: 100 μM peptide
MRCKα(h), sequence (Q5VT25 whole entry): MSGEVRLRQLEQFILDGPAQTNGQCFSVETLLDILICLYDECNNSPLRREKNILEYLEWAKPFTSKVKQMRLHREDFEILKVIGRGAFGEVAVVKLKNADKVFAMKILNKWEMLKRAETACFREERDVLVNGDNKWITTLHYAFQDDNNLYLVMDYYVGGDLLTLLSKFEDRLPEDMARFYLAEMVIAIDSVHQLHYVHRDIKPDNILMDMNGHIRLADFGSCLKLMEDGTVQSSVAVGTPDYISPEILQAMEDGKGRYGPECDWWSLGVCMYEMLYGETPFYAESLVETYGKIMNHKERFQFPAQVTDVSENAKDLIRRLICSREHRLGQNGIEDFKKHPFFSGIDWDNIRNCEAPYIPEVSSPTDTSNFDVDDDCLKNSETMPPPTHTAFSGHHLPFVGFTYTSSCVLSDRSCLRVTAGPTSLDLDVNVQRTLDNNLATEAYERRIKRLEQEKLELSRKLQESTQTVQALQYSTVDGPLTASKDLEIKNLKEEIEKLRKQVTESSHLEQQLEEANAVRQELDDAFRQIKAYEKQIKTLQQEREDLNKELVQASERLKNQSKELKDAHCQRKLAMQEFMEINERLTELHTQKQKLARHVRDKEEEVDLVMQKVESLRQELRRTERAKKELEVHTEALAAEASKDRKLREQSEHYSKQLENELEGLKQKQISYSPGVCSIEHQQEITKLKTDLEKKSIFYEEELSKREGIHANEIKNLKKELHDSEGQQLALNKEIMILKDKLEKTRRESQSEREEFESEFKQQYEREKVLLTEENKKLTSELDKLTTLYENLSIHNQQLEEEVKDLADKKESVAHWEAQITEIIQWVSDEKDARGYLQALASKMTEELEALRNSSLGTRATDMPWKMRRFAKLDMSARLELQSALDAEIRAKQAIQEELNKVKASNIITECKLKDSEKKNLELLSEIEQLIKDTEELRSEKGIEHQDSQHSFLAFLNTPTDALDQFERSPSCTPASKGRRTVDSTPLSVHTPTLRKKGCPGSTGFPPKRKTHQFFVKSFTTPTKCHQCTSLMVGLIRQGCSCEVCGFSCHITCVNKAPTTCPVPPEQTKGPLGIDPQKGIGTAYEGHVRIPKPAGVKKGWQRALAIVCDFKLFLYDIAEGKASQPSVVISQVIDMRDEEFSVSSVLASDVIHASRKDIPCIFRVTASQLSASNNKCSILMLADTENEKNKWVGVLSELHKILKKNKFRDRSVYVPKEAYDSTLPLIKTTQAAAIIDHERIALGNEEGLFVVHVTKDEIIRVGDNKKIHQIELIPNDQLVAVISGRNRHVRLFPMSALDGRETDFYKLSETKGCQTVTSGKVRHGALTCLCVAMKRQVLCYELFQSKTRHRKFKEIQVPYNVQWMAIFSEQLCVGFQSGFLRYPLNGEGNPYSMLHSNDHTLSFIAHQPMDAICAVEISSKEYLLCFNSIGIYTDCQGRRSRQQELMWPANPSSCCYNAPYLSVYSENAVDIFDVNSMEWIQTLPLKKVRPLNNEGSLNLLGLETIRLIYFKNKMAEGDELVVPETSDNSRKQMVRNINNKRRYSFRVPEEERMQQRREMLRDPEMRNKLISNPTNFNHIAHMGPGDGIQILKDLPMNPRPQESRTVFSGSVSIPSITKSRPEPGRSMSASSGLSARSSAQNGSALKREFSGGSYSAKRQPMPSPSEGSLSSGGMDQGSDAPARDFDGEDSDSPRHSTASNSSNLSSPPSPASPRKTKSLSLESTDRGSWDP
How it was run: as §1

cKit(V560G)(h) = cKit(V560G)(h) (Homo sapiens, UniProt P10721, V560G); experiment: Kinase Profiling Assay; assay type: biochemical; conditions: 100 μM peptide
How it was run: as §1

PDGFRα(D842V)(h) = PDGFRα(D842V)(h) (Homo sapiens, UniProt P16234, D842V); experiment: Kinase Profiling Assay; assay type: biochemical; conditions: 100 μM peptide
How it was run: as §1

IGF-1R(h) = molecular target: T3, IGF-1R(h) (Homo sapiens, UniProt P08069); experiment: Kinase Profiling Assay; assay type: biochemical; conditions: 100 μM peptide
T3 construct: purchased Millipore
How it was run: as §1

MAPK1(h) = MAPK1(h) (Homo sapiens, UniProt P27361); experiment: Kinase Profiling Assay; assay type: biochemical; conditions: 100 μM peptide
MAPK1(h), sequence (P27361 whole entry): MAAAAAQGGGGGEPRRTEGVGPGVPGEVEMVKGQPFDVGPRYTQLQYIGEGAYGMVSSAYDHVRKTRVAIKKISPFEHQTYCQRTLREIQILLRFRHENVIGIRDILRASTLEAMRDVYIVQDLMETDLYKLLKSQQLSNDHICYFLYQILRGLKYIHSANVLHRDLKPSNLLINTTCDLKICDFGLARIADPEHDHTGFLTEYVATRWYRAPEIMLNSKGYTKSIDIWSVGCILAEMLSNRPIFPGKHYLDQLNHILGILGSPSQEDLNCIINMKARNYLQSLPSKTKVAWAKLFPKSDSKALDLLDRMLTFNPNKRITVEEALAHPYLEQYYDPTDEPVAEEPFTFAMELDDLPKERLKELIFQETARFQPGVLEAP
How it was run: as §1

PKA(h) = PKA(h) (Homo sapiens, UniProt P17612); experiment: Kinase Profiling Assay; assay type: biochemical; conditions: 100 μM peptide
How it was run: as §1

PAR-1Bα(h) = PAR-1Bα(h) (Homo sapiens, UniProt Q7KZI7); experiment: Kinase Profiling Assay; assay type: biochemical; conditions: 100 μM peptide
PAR-1Bα(h), sequence (Q7KZI7 1-725 isoform Q7KZI7-4): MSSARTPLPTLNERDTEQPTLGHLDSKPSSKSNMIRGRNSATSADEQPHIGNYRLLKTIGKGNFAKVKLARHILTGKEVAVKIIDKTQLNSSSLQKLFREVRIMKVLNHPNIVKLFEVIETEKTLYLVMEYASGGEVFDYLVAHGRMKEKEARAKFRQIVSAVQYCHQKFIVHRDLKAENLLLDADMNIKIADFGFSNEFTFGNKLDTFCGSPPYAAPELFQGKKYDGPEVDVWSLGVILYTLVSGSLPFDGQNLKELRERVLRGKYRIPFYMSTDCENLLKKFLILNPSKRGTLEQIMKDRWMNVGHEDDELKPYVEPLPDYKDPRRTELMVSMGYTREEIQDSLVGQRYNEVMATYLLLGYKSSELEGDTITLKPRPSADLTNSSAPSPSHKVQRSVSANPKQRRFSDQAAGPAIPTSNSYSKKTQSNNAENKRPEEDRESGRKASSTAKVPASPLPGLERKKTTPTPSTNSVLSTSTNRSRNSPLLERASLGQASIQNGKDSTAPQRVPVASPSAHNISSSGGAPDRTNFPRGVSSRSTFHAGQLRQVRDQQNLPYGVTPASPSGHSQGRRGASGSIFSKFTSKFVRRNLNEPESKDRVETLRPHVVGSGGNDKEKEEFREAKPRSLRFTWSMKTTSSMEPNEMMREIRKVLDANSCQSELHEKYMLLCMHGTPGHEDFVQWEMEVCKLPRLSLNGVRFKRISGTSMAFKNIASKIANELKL
How it was run: as §1

[2] = nebulization or intraperitoneal, daily day 7 to 21, lung at day 21

| Compound | JNK1α1(h) % activity (JNK1α1(h)) [%] | Abl(M351T)(h) % activity (Abl(M351T)(h)) [%] | PAK3(h) % activity (PAK3(h)) [%] | MKK7β(h) % activity (MKK7β(h)) [%] | CK1γ3(h) % activity (CK1γ3(h)) [%] | collagen levels in the lung (Masson's blue trichrome), dose response [1] | collagen accumulation (Masson's Trichrome staining) [1, 2] | fibrotic loci formation (H&E staining) [1, 2] | total collagen levels in the lungs (from hydroxyproline) ([1]; nebulized or systemic (IP), post-inflammatory/pre-fibrotic stage, vs bleomycin control) | MRCKα(h) % activity (MRCKα(h)) [%] | cKit(V560G)(h) % activity (cKit(V560G)(h)) [%] | PDGFRα(D842V)(h) % activity (PDGFRα(D842V)(h)) [%] | IGF-1R(h) % activity (IGF-1R(h)) [%] | MAPK1(h) % activity (MAPK1(h)) [%] | PKA(h) % activity (PKA(h)) [%] | PAR-1Bα(h) % activity (PAR-1Bα(h)) [%] |
| --- | --- | --- | --- | --- | --- | --- | --- | --- | --- | --- | --- | --- | --- | --- | --- | --- |
| FAKLAARLYRKALARQLGVAA [MMI-0300] | 97 | 90 | 140 | 100 | 125 |  |  |  |  |  |  |  |  |  |  |  |
| CC(C)C[C@H](NC(=O)[C@H](C)NC(=O)[C@H](CCCCN)NC(=O)[C@H](C)NC(=O)[C@H](CCCNC(=N)N)NC(=O)[C@H](C)NC(=O)[C@H](CCC(N)=O)NC(=O)[C@H](CCCNC(=N)N)NC(=O)[C@H](C)NC(=O)[C@H](C)NC(=O)[C@H](C)NC(=O)[C@H](CCCNC(=N)N)NC(=O)[C@H](C)NC(=O)[C@@H](N)Cc1ccc(O)cc1)C(=O)N[C@@H](C)C(=O)N[C@@H](CCCNC(=N)N)C(=O)N[C@@H](CCC(N)=O)C(=O)N[C@@H](CC(C)C)C(=O)NCC(=O)N[C@H](C(=O)N[C@@H](C)C(=O)N[C@@H](C)C(=O)O)C(C)C [MMI-0100] (H-YARAAARQARAKALARQLGVAA-OH; N-terminus and C-terminus assumed) |  |  |  |  |  | decrease in collagen levels | reduced collagen accumulation | significantly reduced development of fibrotic loci formation | significantly decreased collagen deposition |  |  |  |  |  |  |  |
| KAFAKLAARLYRKALARQLGVAA [MMI-0400] | 98 |  |  | 94 |  |  |  |  |  | 97 | 124 | 118 | 90 | 100 |  |  |
| YARAAARQARAKALNRQLGVA (Mammalian) [MMI-0200] |  |  | 50 |  | 96 | did not reduce, but rather increased the collagen deposition |  |  |  |  |  |  | 49 | 97 | 110 | 110 |
| HRRIKAWLKKIKALARQLGVAA (Mammalian) [MMI-0500] |  | 61 |  |  |  |  |  |  |  | 5 | 198 | 170 |  |  | 118 | 97 |
